To fix the notation:
T1: CD19 (UniProt P15391 20-556, limits assumed)
T1 construct: whole, on cells; also called CD19 on JeKo-1
T1 sequence (looked up): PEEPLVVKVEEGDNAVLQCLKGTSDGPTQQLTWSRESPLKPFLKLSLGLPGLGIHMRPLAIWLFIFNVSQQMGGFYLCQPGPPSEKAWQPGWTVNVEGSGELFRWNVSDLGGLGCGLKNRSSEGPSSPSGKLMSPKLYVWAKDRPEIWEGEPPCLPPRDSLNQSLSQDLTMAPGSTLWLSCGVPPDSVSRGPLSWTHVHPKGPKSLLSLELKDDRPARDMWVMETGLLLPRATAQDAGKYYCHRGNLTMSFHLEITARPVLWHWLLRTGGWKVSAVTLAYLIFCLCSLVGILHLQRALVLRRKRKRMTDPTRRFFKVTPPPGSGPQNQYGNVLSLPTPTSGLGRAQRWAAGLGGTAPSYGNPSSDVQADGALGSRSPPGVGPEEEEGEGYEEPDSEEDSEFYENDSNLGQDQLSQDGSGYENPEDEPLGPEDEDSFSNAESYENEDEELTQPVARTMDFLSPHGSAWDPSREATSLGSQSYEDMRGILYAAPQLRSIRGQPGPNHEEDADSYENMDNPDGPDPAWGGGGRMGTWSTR

B1: CD19 BRIDGE variant B23 (Fab)
heavy: EVQLVESGGGLVKPGGSLKLSCAASGYTFTSYVMHWVRQAPGKGLEWIGYINPYNDGTKYNEKFQGRVTISSDKSISTAYMELSSLRSEDTAMYYCARGTYYYGTRVFDYWGQGTLVTVSSASTKGPSVFPLAPSSKSTSGGTAALGCLVKDYFPEPVTVSWNSGALTSGVHTFPAVLQSSGLYSLSSVVTVPSSSLGTQTYICNVNHKPSNTKVDKKVEPKSCHHHHHH
light: DFPGHNYTTRNILPGLNITSTFHKTSGSGKGSEPKSSDKTHTDIVMTQSPATLSLSPGERATLSCRSSKSLQNVNGNTYLYWFQQKPGQSPQLLIYRMSNLNSGVPDRFSGSGSGTEFTLTISSLEPEDFAVYYCMQHLEYPITFGAGTKLEIKRTVAAPSVFIFPPSDEQLKSGTASVVCLLNNFYPREAKVQWKVDNALQSGNSQESVTEQDSKDSTYSLSSTLTLSKADYEKHKVYACEVTHQGLSSPVTKSFNRGEC
B2: CD19 BRIDGE variant B31 (Fab)
heavy: B1 heavy
light: DFPGHNYTTRNILPGLNITSEPKSSDKTHTGGGGSDIVMTQSPATLSLSPGERATLSCRSSKSLQNVNGNTYLYWFQQKPGQSPQLLIYRMSNLNSGVPDRFSGSGSGTEFTLTISSLEPEDFAVYYCMQHLEYPITFGAGTKLEIKRTVAAPSVFIFPPSDEQLKSGTASVVCLLNNFYPREAKVQWKVDNALQSGNSQESVTEQDSKDSTYSLSSTLTLSKADYEKHKVYACEVTHQGLSSPVTKSFNRGEC
B3: CD19 BRIDGE variant B30 (Fab)
heavy: B1 heavy
light: DFPGHNYTTRNILPGLNITSTFHKTSGSGKGGGGSEPKSSDKTHTGSDIVMTQSPATLSLSPGERATLSCRSSKSLQNVNGNTYLYWFQQKPGQSPQLLIYRMSNLNSGVPDRFSGSGSGTEFTLTISSLEPEDFAVYYCMQHLEYPITFGAGTKLEIKRTVAAPSVFIFPPSDEQLKSGTASVVCLLNNFYPREAKVQWKVDNALQSGNSQESVTEQDSKDSTYSLSSTLTLSKADYEKHKVYACEVTHQGLSSPVTKSFNRGEC
B4: CD19 BRIDGE variant B27 (Fab)
heavy: B1 heavy
light: DFPGHNYTTRNILPGLNITSGGGGSEPKSSDKTHTGSDIVMTQSPATLSLSPGERATLSCRSSKSLQNVNGNTYLYWFQQKPGQSPQLLIYRMSNLNSGVPDRFSGSGSGTEFTLTISSLEPEDFAVYYCMQHLEYPITFGAGTKLEIKRTVAAPSVFIFPPSDEQLKSGTASVVCLLNNFYPREAKVQWKVDNALQSGNSQESVTEQDSKDSTYSLSSTLTLSKADYEKHKVYACEVTHQGLSSPVTKSFNRGEC
B5: CD19 BRIDGE variant B29 (Fab)
heavy: B1 heavy
light: DFPGHNYTTRNILPGLNITSTFHKTSGSGKGSEPKSSDKTHTGSDIVMTQSPATLSLSPGERATLSCRSSKSLQNVNGNTYLYWFQQKPGQSPQLLIYRMSNLNSGVPDRFSGSGSGTEFTLTISSLEPEDFAVYYCMQHLEYPITFGAGTKLEIKRTVAAPSVFIFPPSDEQLKSGTASVVCLLNNFYPREAKVQWKVDNALQSGNSQESVTEQDSKDSTYSLSSTLTLSKADYEKHKVYACEVTHQGLSSPVTKSFNRGEC
B6: CD19 BRIDGE variant B24 (Fab)
heavy: B1 heavy
light: DFPGHNYTTRNILPGLNITSTFHKTSGSGKGGGGSEPKSSDKTHTDIVMTQSPATLSLSPGERATLSCRSSKSLQNVNGNTYLYWFQQKPGQSPQLLIYRMSNLNSGVPDRFSGSGSGTEFTLTISSLEPEDFAVYYCMQHLEYPITFGAGTKLEIKRTVAAPSVFIFPPSDEQLKSGTASVVCLLNNFYPREAKVQWKVDNALQSGNSQESVTEQDSKDSTYSLSSTLTLSKADYEKHKVYACEVTHQGLSSPVTKSFNRGEC
B7: CD19 BRIDGE variant B28 (Fab)
heavy: B1 heavy
light: DFPGHNYTTRNILPGLNITSTFHKTSGSGKEPKSSDKTHTGSDIVMTQSPATLSLSPGERATLSCRSSKSLQNVNGNTYLYWFQQKPGQSPQLLIYRMSNLNSGVPDRFSGSGSGTEFTLTISSLEPEDFAVYYCMQHLEYPITFGAGTKLEIKRTVAAPSVFIFPPSDEQLKSGTASVVCLLNNFYPREAKVQWKVDNALQSGNSQESVTEQDSKDSTYSLSSTLTLSKADYEKHKVYACEVTHQGLSSPVTKSFNRGEC
B8: CD19 BRIDGE variant B26 (Fab, V domains shown)
VH: EVQLVESGGGLVKPGGSLKLSCAASGYTFTSYVMHWVRQAPGKGLEWIGYINPYNDGTKYNEKFQGRVTISSDKSISTAYMELSSLRSEDTAMYYCARGTYYYGTRVFDYWGQGTLVTVSS
VL: DIVMTQSPATLSLSPGERATLSCRSSKSLQNVNGNTYLYWFQQKPGQSPQLLIYRMSNLNSGVPDRFSGSGSGTEFTLTISSLEPEDFAVYYCMQHLEYPITFGAGTKLEIKR

The first test addresses T2, nfP2X7 CAR 1.
T2 construct: CAR-positive cells gated by the co-expressed EGFR marker; also called nfP2X7 targeted CAR; nfP2X7 CAR on EGFR+ T cells
Nature of the test: flow cytometry, anti-His-FITC, MFI on EGFR+ (CAR+) over EGFR- (CAR-) T cells. In short, it runs like this:
(§1)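 CAR T cells incubated with BRiDGE variants at saturating concentrations; bound BRiDGE detected with anti-His-FITC by flow cytometry. EGFR marks CAR expression. Value is median fluorescence intensity on EGFR+ (CAR+) cells divided by that on EGFR− (CAR−) cells.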
As to B1, the “HisTag MFI Ratio of EGFR+/EGFR-” value worked out at 4.4.
The same measure, in the same setting: the same measure for B2: 3.9.
Turning to B3, the “HisTag MFI Ratio of EGFR+/EGFR-” value amounted to 4.3.
Still for that read-out and setting: then B4, with 4.1.
Same read-out and setting: then B5, with 4.2; and B6, with 3.9; and B7, with 4.2.
For B8, the “HisTag MFI Ratio of EGFR+/EGFR-” value worked out at 4.2.

A further test has as its target T1, CD19. Nature of the test: flow cytometry, JeKo-1 cells, anti-His-FITC detection, MFI over no-bridge control. How it is done: (§2) JeKo-1 cells were incubated with different CD19 BRiDGE variants at saturating concentrations. […] The MFI intensity correlates with the number of secondary bound antibodies bound to the CD19 BRiDGE variants that are only detected if they are bound to the JeKo-1 cells. MFI: median fluorescence intensity. BLitz: Bio-Layer interferometry (BLI) technology using HIS-tag identification tips. […] The higher the MFIR, the stronger the binding.
A general note: A flow cytometer gives signals particle by particle.
Take B1: the “MFIR HisTag FITC” value was 3.1.
For the molecule B2, the “MFIR HisTag FITC” value stood at 2.77.
B3: the “MFIR HisTag FITC” value came out at 3.05.
On the same count and under the same terms, the same measure for B4: 3.25; for B5: 3.03.
Same read-out and setting: then B6, with 3.21; and B7, with 3.09.
Still for that read-out and setting: then B8, with 3.06.

A further test concerns the target T2, nfP2X7 CAR 1. The experiment in a line: flow cytometry, nfP2X7 CAR 1 T cells (EGFR+ gate), anti-His-FITC detection.
Regarding B1, the “MFI HisTag FITC in EGFR+ Population” value is 2.34.
On the same count and under the same terms, then B2, with 2.67; and B3, with 2.12; and B4, with 2.35.
Same read-out and setting: then B5, with 2.25; and B6, with 2.13; and B7, with 2.24.
The same measure, in the same setting: then B8, with 2.17.

The target in another test is T2, nfP2X7 CAR 1. Nature of the test: flow cytometry, anti-His-FITC, MFI on EGFR+ (CAR+) T cells over background 0.44. In short, it runs like this:
as §1
For B1, the “HisTag MFI Ratio (background 0.44)” value was 5.3.
Still for that read-out and setting: the same measure for B2: 6.1; for B3: 4.8.
B4: the “HisTag MFI Ratio (background 0.44)” value is 5.3.
Take B5: the “HisTag MFI Ratio (background 0.44)” value worked out at 5.1.
On the same count and under the same terms, the same measure for B6: 4.8; for B7: 5.1; for B8: 4.9.

For the next test, the target named is T1, CD19. The experiment in a line: flow cytometry, JeKo-1 cells, bridge at saturating conc., anti-His-FITC detection. How it is done: as §2
Turning to B1, the “MFI HisTag FITC” value was 2.39.
Take B2: the “MFI HisTag FITC” value came to 2.13.
Same read-out and setting: then B3, with 2.35.
In the case of B4, the “MFI HisTag FITC” value came to 2.5.
Consider B5, for which the “MFI HisTag FITC” value worked out at 2.33.
Consider B6, for which the “MFI HisTag FITC” value was 2.47.
Same read-out and setting: then B7, with 2.38; and B8, with 2.36.

Another test deals with T1, CD19. The experiment in a line: flow cytometry, JeKo-1 cells, BIL03s-AF647 detection, MFI over no-bridge control. How it is done:
as §2
B1: the “MFIR BIL03 AF647” value came out at 14.8.
Still for that read-out and setting: the same measure for B2: 12.7.
Consider B3, for which the “MFIR BIL03 AF647” value is 16.3.
On the same count and under the same terms, the same measure for B4: 20.9; for B5: 16.2; for B6: 18.4.
Same read-out and setting: then B7, with 19.1; and B8, with 12.

The next test has as its target T1, CD19. Nature of the test: flow cytometry, JeKo-1 cells, bridge at saturating conc., BIL03s-AF647 detection. How it is done:
as §2
As for B1, the “MFI Bil03 AF647” value was 6.82.
With B2, the “MFI Bil03 AF647” value came out at 5.83.
Regarding B3, the “MFI Bil03 AF647” value is 7.48.
Still for that read-out and setting: the same measure for B4: 9.6; for B5: 7.44; for B6: 8.45.
For B7, the “MFI Bil03 AF647” value stood at 8.78.
The same measure, in the same setting: then B8, with 5.53.

The record behind these values is patent US20250281611A1 (BIOSCEPTRE AUST, published 2025).
